Laboratory results taken from publication PMC11328874 (2024).

B1: HA-tagged B55α (HA-B55α), wild type [human] / FLAG-Eya3 (human), wild type [human] (parent complex)
chain 1: MAGAGGGNDIQWCFSQVKGAVDDDVAEADIISTVEFNHSGELLATGDKGGRVVIFQQEQENKIQSHSRGEYNVYSTFQSHEPEFDYLKSLEIEEKINKIRWLPQKNAAQFLLSTNDKTIKLWKISERDKRPEGYNLKEEDGRYRDPTTVTTLRVPVFRPMDLMVEASPRRIFANAHTYHINSISINSDYETYLSADDLRINLWHLEITDRSFNIVDIKPANMEELTEVITAAEFHPNSCNTFVYSSSKGTIRLCDMRASALCDRHSKLFEEPEDPSNRSFFSEIISSISDVKFSHSGRYMMTRDYLSVKIWDLNMENRPVETYQVHEYLRSKLCSLYENDCIFDKFECCWNGSDSVVMTGSYNNFFRMFDRNTKRDITLEASRENNKPRTVLKPRKVCASGKRKKDEISVDSLDFNKKILHTAWHPKENIIAVATTNNLYIFQDKVN
chain 2: MEEEQDLPEQPVKKAKMQESGEQTISQVSNPDVSDQKPETSSLASNLPMSEEIMTCTDYIPRSSNDYTSQMYSAKPYAHILSVPVSETAYPGQTQYQTLQQTQPYAVYPQATQTYGLPPFGALWPGMKPESGLIQTPSPSQHSVLTCTTGLTTSQPSPAHYSYPIQASSTNASLISTSSTIANIPAAAVASISNQDYPTYTILGQNQYQACYPSSSFGVTGQTNSDAESTTLAATTYQSEKPSVMAPAPAAQRLSSGDPSTSPSLSQTTPSKDTDDQSRKNMTSKNRGKRKADATSSQDSELERVFLWDLDETIIIFHSLLTGSYAQKYGKDPTVVIGSGLTMEEMIFEVADTHLFFNDLEECDQVHVEDVASDDNGQDLSNYSFSTDGFSGSGGSGSHGSSVGVQGGVDWMRKLAFRYRKVREIYDKHKSNVGGLLSPQRKEALQRLRAEIEVLTDSWLGTALKSLLLIQSRKNCVNVLITTTQLVPALAKVLLYGLGEIFPIENIYSATKIGKESCFERIVSRFGKKVTYVVIGDGRDEEIAAKQHNMPFWRITNHGDLVSLHQALELDFL

Variants of: B1
Experiment: FLAG co-IP followed by Western blot, band quantification; cotransfected HEK cells; three biological replicates; parent: 1; read off a plot

Row | ratio to parent | Variant
1 | ~0.4 | chain 1 E93A, chain 1 E94A, chain 1 K95A
2 | ~0.36 | chain 1 K345E
3 | ~1.2 | chain 1 E27R
4 | ~0.28 | chain 1 Y178A, chain 1 H179A
5 | ~0.58 | chain 1 D197K
6 | ~1.1 | chain 1 K48E
